# Assay results from patent publication US11473061B2, “Systems and methods for growth of intestinal cells in microfluidic devices” (Cedars-Sinai Medical Center, priority 2016, dated 2022).
# B1: IFNgamma: inflammatory cytokine interferon-gamma (protein, UniProt P01579 24-161, looked up)
# Interferon gamma: QDPYVKEAENLKKYFNAGHSDVADNGTLFLGILKNWKEESDRKIMQSQIVSFYFKLFKNFKDDQSIQKSVETIKEDMNVKFFNSNKKKRDDFEKLTNYSVTDLNVQRKAIHELIQVMAELSPAAKTGKRKRSQMLFRG
# Assays:
# iHTNs = experiment: Seahorse mitochondrial stress test in iHTNs; assay type: cell-based, human; conditions: low-dose EDC treatment
# Description: (§2) The Seahorse XF^e24 Extracellular Flux Analyzer (Seahorse Biosciences) was used to perform mitochondrial stress tests and obtain real-time measurements of oxygen consumption rate (OCR) in cells. iFGEs and iHTNS treated with or without EDCs were seeded in a 24-well Seahorse culture plate at a density of 10,000-15,000 cells/well. For analysis of OCR, cells were reconstituted in Seahorse base medium and were allowed to settle for 1 hour at 37° C. in non-CO2 incubator before measurements. Chemical reagents (Sigma) were used at final concentrations as follows: 1 μM Oligomycin—an ATP synthase inhibitor, 1 μM (FCCP) carbonyl cyanide 4-(trifluoromethoxy)phenylhydrazone—an uncoupling agent, and a mixture of 0.50 μM antimycin A—a cytochrome C reductase inhibitor and 0.5 μM rotenone—a complex I inhibitor. Results were normalized to protein concentration determined by BCA assay (Thermo Scientific).
# iFGEs = experiment: Seahorse mitochondrial stress test in iFGEs; assay type: cell-based, human; conditions: low-dose EDC treatment
# Description: as §2
# [1] = system: human intestinal epithelial cells derived from IPSCs; experiment: Dextran FITC permeability of iPSC-derived intestinal epithelium; assay type: cell-based; conditions: for basal accumulation of FITC dextran: after addition to the apical layer; for permeability co-efficient (FITC dextran added to the apical channel): microfluidic chips
# Description: (§1) Human intestinal epithelial cells derived from IPSCs were treated with 10 ng/ml of IFNgamma. The basal administration of IFNg leads to a decrease in transepithelial resistance and an increase in the efflux of dextran FITC in human intestinal epithelial cells derived from IPSCs. Basically this means that the intestinal epithelium is more permeable in response to this cytokine.
# hindgut intestinal cells = experiment: TEER of hindgut intestinal cells grown in transwell; assay type: cell-based, human; conditions: for TEER / transepithelial resistance: transwell, compared to control
# Text: FIG. 76. Depiction of exemplary transwell apparatus, including deposit of cells on a membrane and measurement of electrical properties via electrodes spanning both sides of the chamber.
# FIG. 79. TEER measurement of hindgut intestinal cells growth in transwell.
# FIG. 81. Another depiction of IFNγ responsiveness for cells grown in a transwell system.
# [2] = system: human intestinal epithelial cells derived from IPSCs; experiment: Transepithelial electrical resistance (TEER) in microfluidic chips; assay type: cell-based; conditions: 10 ng/ml of IFNgamma, basal administration, over time
# Description: as §1
# Caco2 cells = experiment: IFNgamma response of Caco-2 cells on chips; assay type: cell-based, human
# [3] = system: STAT1 and IFNgamma responsive genes; experiment: IFNgamma response of iPSC-derived intestinal cells in small microfluidic device; assay type: cell-based, human; conditions: IFNgamma administered to the lower channel
# Description: In one embodiment, iPSCs were directed to form HIOs and were subsequently dissociated to a single cell suspension. These cells were then seeded into a small microfluidic device (SMD) which is composed of two chambers separated by a porous flexible membrane. See, FIG. 40.
# [4] = human intestinal epithelial cells derived from IPSCs
molecule,measurement,setting,value
"O=C(O)C(F)(F)C(F)(F)C(F)(F)C(F)(F)C(F)(F)C(F)(F)C(F)(F)F [PFOA, perfluorooctanoic acid]",effect on spare respiratory capacity,iHTNs,did not show any effect
same,effect on spare respiratory capacity,iFGEs,did not show any effect
TNFalpha,basal accumulation of FITC dextran,[1]; [4],comparable
same,intestinal permeability,"[1]; human intestinal epithelial cells derived from IPSCs, microfluidic cultures",does not elicit any change
same,permeability co-efficient (FITC dextran added to the apical channel),[1],comparable
same,intestinal permeability,hindgut intestinal cells; transwell system,does not elicit any change
same,transepithelial electrical resistance (TEER),[2]; n=4,increased TEER over time comparable to controls
tributyltin [TBT],effect on spare respiratory capacity,iHTNs,significant impairment
B1,efflux of dextran FITC,[1]; [4],increase
same,basal accumulation of FITC dextran,"[1]; human intestinal epithelial cells derived from IPSCs, listed as IFNγ",basal accumulation
same,permeability co-efficient (FITC dextran added to the apical channel),[1],increase
same,TEER / transepithelial resistance,hindgut intestinal cells,decrease
same,TEER / transepithelial resistance,hindgut intestinal cells; listed as IFNγ,increase
same,transepithelial electrical resistance (TEER),[2]; n=4,loss
same,transepithelial electrical resistance (TEER),"[2]; n=4, listed as IFNg",decrease
same,genes associated with intestinal epithelial subtypes,Caco2 cells; Caco2 cells,no corresponding upregulation
same,response to IFN-gamma (relative expression of gene markers),Caco2 cells; Caco-2 epithelial cells grown on chips vs enteroids grown on chips,do not show the same response
same,"IFNgamma responsive genes (IDO1, GBP4 and/or GBP5)",[3],significant upregulation
same,phospholipase A2 group 2A and Muc4 expression,[3],upregulated
same,phosphorylation of STAT1,[3],phosphorylation
